# IntAct's records for PubMed 16354671
# B1: Outer-membrane lipoprotein carrier protein (Escherichia coli (strain K12)), P61316 (parent)
# chain: MKKIAITCALLSSLVASSVWADAASDLKSRLDKVSSFHASFTQKVTDGSGAAVQEGQGDLWVKRPNLFNWHMTQPDESILVSDGKTLWFYNPFVEQATATWLKDATGNTPFMLIARNQSSDWQQYNIKQNGDDFVLTPKASNGNLKQFTINVGRDGTIHQFSAVEQDDQRSSYQLKSQQNGAVDAAKFTFTPPQGVTVDDQRK
# partner: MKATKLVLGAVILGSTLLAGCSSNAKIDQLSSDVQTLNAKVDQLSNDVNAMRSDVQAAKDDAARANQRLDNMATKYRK
# Variants of: B1
# Conditions: with lpp_ecoli lpp
row,Variant,effect of a mutation on the interaction
1,MKKIAITCALLSSLVASSVWADAASDLKSRLDKVSSFHASFTQKVTDGSGAAVQEGQGDLWVKRPNLFNWHMTQPDESILVSDGKTLWFYNPFVEQATATWLKDATGNTPFMLGARNQSSDWQQYNIKQNGDDFVLTPKASNGNLKQFTINVGRDGTIHQFSAVEQDDQRSSYQLKSQQNGAVDAAKFTFTPPQGVTVDDQRK [I114G],increasing interaction
